The source of these data is patent US20210032351A1 (XDCEXPLORER SHANGHAI, published 2021).

Values joined by “and” are separate entries in the source; they are usually repeats but may differ in a detail not shown here. Identical values can stand only once. Like-named read-outs stand apart in the source and are kept apart here. Ends that are not written are not given here. * marks the point of attachment. Biotin = O=C1N[C@H]2[C@H](CS[C@H]2CCCCC(=O)*)N1

The target of experiment [1] is human EGFRvIII protein on the cell surface (human) (UniProt P00533). Nature of the experiment: FACS on U87MG-EGFRvIII cells.
The next experiment deals with T1, pep14 (cysteine pairing not given here).
T1 peptide: GSCVRACGADSYEMEEK(Biotin)
The experiment in a line: peptide dot matrix ELISA.

The next experiment concerns the target T2, pep05 (cysteine pairing not given here).
T2 peptide: KGNYVVTDHGSCVRACK(Biotin)
The experiment in a line: peptide dot matrix ELISA. Background: In an ELISA, binding on a coated surface is turned into a signal by an enzyme label.

Another experiment deals with T3, pep13 (cysteine pairing not given here).
T3 peptide: HGSCVRACGADSYEMEK(Biotin)
Nature of the experiment: peptide dot matrix ELISA.

A further experiment addresses T4, pep19.
T4 sequence (peptide, C-terminal K(Biotin)): ACGADSYEMEEDGVRKK
The experiment in a line: peptide dot matrix ELISA.

In another experiment the target is T5, pep06 (cysteine pairing not given here).
T5 peptide: GNYVVTDHGSCVRACGK(Biotin)
Nature of the experiment: peptide dot matrix ELISA.

The next experiment concerns the target T6, pep15 (cysteine pairing not given here).
T6 peptide: SCVRACGADSYEMEEDK(Biotin)
The experiment in a line: peptide dot matrix ELISA.

The next experiment has as its target T7, pep21.
T7 peptide: GADSYEMEEDGVRKCKK(Biotin)
Nature of the experiment: peptide dot matrix ELISA.

A further experiment has as its target T8, pep07 (cysteine pairing not given here).
T8 peptide: NYVVTDHGSCVRACGAK(Biotin)
The experiment in a line: peptide dot matrix ELISA.

The next experiment addresses T9, pep20 (cysteine pairing not given here).
T9 peptide: CGADSYEMEEDGVRKCK(Biotin)
The experiment in a line: peptide dot matrix ELISA.

Experiment [2] has as its target T10, pep04.
T10 sequence (peptide, C-terminal K(Biotin)): KKGNYVVTDHGSCVRAK
The experiment in a line: peptide dot matrix ELISA.

Experiment [3] has as its target human EGFRvIII protein on the cell surface (human) (UniProt P00533). Nature of the experiment: FACS on CHOk1-EGFRvIII cells.
The target of experiment [4] is human wild-type EGFR protein on the cell surface (human) (UniProt P00533). Nature of the experiment: FACS on normal human primary hepatocytes.
The target of experiment [5] is human EGFRvIII-hFc protein (human) (UniProt P00533). Nature of the experiment: ELISA, EGFRvIII-hFc coated.
For experiment [6], the target named is human wild-type EGFR protein on the cell surface (human) (UniProt P00533). Nature of the experiment: FACS on CHOk1-EGFR cells.
Experiment [7] concerns the target human EGFRvIII-hFc protein (human) (UniProt P00533). The experiment in a line: ELISA, EGFRvIII-hFc coated. This is another data set of the same source.
The target in experiment [8] is human wild-type EGFR protein on the cell surface (human) (UniProt P00533). The experiment in a line: FACS on A431 tumor cells.
Experiment [9] has as its target T11, human EGFRvIII protein, full length, on transfected cells (human, UniProt P00533 25-1210).
T11 construct: whole, on cells; stably transfected CHO-K1, U87MG and HEK293(F) cells; also called hEGFRvIII; mutant EGFRvIII protein
The experiment in a line: FACS on CHOK-EGFRvIII cells.

Experiment [10] has as its target T12, human EGFRvIII-hFc protein (human, UniProt P00533 25-645).
T12 construct: extracellular domain; made in HEK293 cells, purified on protein A; also called immunogen A; hFc-tagged EGFRvIII protein; not shown: human IgG Fc fragment (hFc) of the pCpC vector
Nature of the experiment: ELISA, coated EGFRvIII-hFc. On the procedure:
The plate is incubated for 2 hours at 37° C., and then washed 3 times with the plate washing solution [PBS+0.01% (v/v) Tween20]. The plate is added with an HRP (horseradish peroxidase) labeled secondary antibody (purchased from Sigma), incubated at 37° C. for 2 hours, and then washed 3 times with the plate washing solution [PBS+0.01% (v/v) Tween20]. The plate is added with 100 μl of TMB substrate/well, incubated for 30 minutes at room temperature, and then added with 100 μl of stopping solution (1.0N HCl)/well. A450 nm value is read using an ELISA plate reader (SpectraMax 384plus, purchased from Molecular Device), and the results are shown in FIG. 11 and table 19.

Experiment [11] addresses T13, human EGFR protein (wild-type), on cells (human, UniProt P00533 25-1210).
T13 construct: whole, on cells; transfected on CHO-K1 cells; endogenous on the human cell lines; the cell is named under assay; also called wild-type EGFR; hEGFR
Nature of the experiment: FACS on CHOK-EGFR cells.

Experiment [12] concerns the target T11, human EGFRvIII protein, full length, on …. Nature of the experiment: FACS on U87MG-EGFRvIII cells, Alexa 488 secondary antibody, mean fluorescence intensity. As to the method:
The preparation of U87MG-EGFRvIII required for FACS detection is as described in the preparation of the immunogen B in example 1. Normal human primary hepatocytes are purchased from BioreclamationIVT, and A431 tumor cells are purchased from ATCC. […] The cells are washed twice with the HBSS buffer and are counted, and then the cells are diluted with the HBSS buffer to 2×10⁶ cells/ml, added with 1% goat serum blocking solution, with the percentage being the mass percentage, and incubated on ice for 30 minutes, and then centrifugally washed twice with the HBSS buffer. […] The plate is centrifugally washed twice with the FACS buffer, added with 100 μL/well of a 1:1000 diluted fluorescence (Alexa 488) labeled secondary antibody (purchased from Invitrogen), and incubated on ice for 1 hour. […] The cells are resuspended in 100 μL of the FACS buffer, and the results are detected and analyzed by FACS (FACS Calibur, purchased from BD). Data analysis is performed by using the software (CellQuest) to obtain the mean fluorescence intensity (MFI) of the cells. Data is further analyzed by using the software (GraphPad Prism5) to perform data fitting and calculate EC50.

Experiment [13] has as its target T12, human EGFRvIII-hFc protein. The experiment in a line: ELISA, plate coated with human EGFRvIII-hFc, HRP secondary antibody, absorbance at 450 nm. As to the method: The purified immunogen A (EGFRvIII-hFc) obtained in example 1 (for the preparation method, see step (I) in example 1) is diluted with PBS to a final concentration of 1.0 μg/mL, and then added to a 96-well ELISA plate at 100 μl/well. The plate is sealed with a plastic film and incubated at 4° C. overnight. The next day, the plate is washed twice with a plate washing solution [PBS+0.01% (v/v) Tween20], and added with a blocking solution [PBS+0.01% (v/v) Tween20+1% (w/w) BSA] for blocking 2 hours at room temperature. […] The plate is incubated for 2 hours at 37° C., and then washed 3 times with the plate washing solution [PBS+0.01% (v/v) Tween20]. The plate is added with an HRP (horseradish peroxidase) labeled secondary antibody (purchased from Sigma), incubated at 37° C. for 2 hours, and then washed 3 times with the plate washing solution [PBS+0.01% (v/v) Tween20]. The plate is added with 100 μl of TMB substrate/well, incubated for 30 minutes at room temperature, and then added with 100 μl of stopping solution (1.0N HCl)/well. A450 nm value is read using an ELISA plate reader (SpectraMax 384plus, purchased from Molecular Device), and the results are shown in FIG. 11 and table 19.

The next experiment deals with T14, pep26 (cysteine pairing not given here).
T14 peptide: EMEEDGVRKCKKCEGPK(Biotin)
Nature of the experiment: peptide dot matrix ELISA.

The next experiment addresses T15, pep18.
T15 peptide: RACGADSYEMEEDGVRK(Biotin)
Nature of the experiment: peptide dot matrix ELISA.

The target of the next experiment is T16, pep09 (cysteine pairing not given here).
T16 peptide: VVTDHGSCVRACGADSK(Biotin)
Nature of the experiment: peptide dot matrix ELISA.

Another experiment concerns the target T17, pep17.
T17 peptide: VRACGADSYEMEEDGVK(Biotin)
The experiment in a line: peptide dot matrix ELISA.

Another experiment has as its target T18, pep31 (cysteine pairing not given here).
T18 peptide: GVRKCKKCEGPCRKVCK(Biotin)
The experiment in a line: peptide dot matrix ELISA.

The target in a further experiment is T19, pep33 (cysteine pairing not given here).
T19 peptide: RKCKKCEGPCRKVCNGK(Biotin)
Nature of the experiment: peptide dot matrix ELISA.

Another experiment has as its target T20, pep25 (cysteine pairing not given here).
T20 peptide: YEMEEDGVRKCKKCEGK(Biotin)
Nature of the experiment: peptide dot matrix ELISA.

In a further experiment the target is T21, pep28 (cysteine pairing not given here).
T21 peptide: EEDGVRKCKKCEGPCRK(Biotin)
Nature of the experiment: peptide dot matrix ELISA.

Experiment [14] has as its target T22, pep04.
T22 peptide: KKGNYVVTDHGSCVRAK(Biotin)
Nature of the experiment: peptide dot matrix ELISA.

Another experiment deals with T23, pep35 (cysteine pairing not given here).
T23 peptide: CKKCEGPCRKVCNGIGK(Biotin)
Nature of the experiment: peptide dot matrix ELISA.

The next experiment deals with T24, pep16 (cysteine pairing not given here).
T24 peptide: CVRACGADSYEMEEDGK(Biotin)
Nature of the experiment: peptide dot matrix ELISA.

A further experiment addresses T25, pep10 (cysteine pairing not given here).
T25 peptide: VTDHGSCVRACGADSYK(Biotin)
Nature of the experiment: peptide dot matrix ELISA.

Another experiment concerns the target T26, pep08 (cysteine pairing not given here).
T26 peptide: YVVTDHGSCVRACGADK(Biotin)
Nature of the experiment: peptide dot matrix ELISA.

A further experiment deals with T27, pep34 (cysteine pairing not given here).
T27 peptide: KCKKCEGPCRKVCNGIK(Biotin)
The experiment in a line: peptide dot matrix ELISA.

Another experiment addresses T28, pep30 (cysteine pairing not given here).
T28 peptide: DGVRKCKKCEGPCRKVK(Biotin)
Nature of the experiment: peptide dot matrix ELISA.

The next experiment deals with T29, pep11 (cysteine pairing not given here).
T29 peptide: TDHGSCVRACGADSYEK(Biotin)
Nature of the experiment: peptide dot matrix ELISA.

The target of another experiment is T30, pep01.
T30 peptide: LEEKKGNYVVTDHGSCK(Biotin)
The experiment in a line: peptide dot matrix ELISA.

As to hIgG (antibody), the Maximum mean fluorescence intensity in experiment [1] was 0 MFI; in [3], 133 MFI; in experiment [6], 144 MFI. In addition, the ELISA signal is 0.07 in the experiment with pep14; 0.05 and 0.06 in the experiment with pep05; 0.06 with pep13; 0.05 in the experiment with pep19; 0.07 and 0.05 in the experiment with pep06; 0.05 and 0.06 with pep15. For the same molecule, the ELISA signal with pep21 is 0.06; with pep07 it was 0.05; with pep20, 0.12 and 0.1; with pep04 [2], 0.05 and 0.06. The values for the MFI in experiment [4] and in [8] were 219 MFI and 388 MFI, respectively. In addition, the Maximum OD450 value in [5] amounted to 0.1 OD450; in [7] it was 0.17 OD450.

B1: c75G7C6-3 (antibody, human IgG1, V domains shown)
VH: EVQLQQSGPELVKPGASVKIPCKASGYTFTDYNMDWVKQSHGKSLEWIGDINPNNGDTIYNQKFKGKATLTVDKSSSTAYMELRSLTSEDTAVYYCARGDYEGYYPVYYAMDYWGQGTSVTVSS
VL: ENVLTQSPAIMSASPGEKVTMTCRASSSVSSSYLHWYQQKSGASPKLWIFSTSNLAAGVPARFSGSGSGTSYSLTVSSVEAEDAATYYCQQYSGYPLTFGAGTKLELK
notes: chimeric, human IgG1 / kappa; DG of heavy chain CDR3 mutated to EG; also called DG/EG mutant
Consider B1, for which the “fold decrease in binding ability compared to the wild-type chimeric antibody c75G7C6” value in experiment [9] is 2.5 fold; in experiment [10] it was 22 fold; in experiment [11], 3 fold.

B2: Chimeric antibody 63A10 (antibody, human IgG1, V domains shown)
VH: QVQLQQSGAELARPGASVKMSCKASGYTFISFTMHWVKQRPGQGLEWIGYINPNSGYTKYNQKFKDKATLTAGQSSSTAYMQLSSLTSEDSAVYYCTRGGGRGFAYWGQGTLVTVSA
VL: DILMTQSPSSMSVSLGDTVTITCHASQDINSNIGWLQQKPGKSFKALIYHGTNLEDGVPSRFSGSGSGADYSLTISSLESEDFADYYCVQYAQFPFTFGSGTKLEIK
notes: also called c63A10A7
One may read the EC50 (read off the curve) as the concentration that produces a half-maximal response. B2: the “EC50 (read off the curve)” value in experiment [12] was about 2 nM; in experiment [13], about 0.03 nM.

B3: Chimeric antibody 63A10 (antibody, V domains shown)
VH: B2 VH
VL: B2 VL
notes: also called c63A10A7
As for B3, the ELISA signal in the experiment with pep26 was determined as 0.33; in the experiment with pep18, 0.05; in the experiment with pep09, 0.05; with pep17 it was 0.05; with pep31, 0.06; with pep33 it was 0.07. Also, the ELISA signal amounted to 0.06 in the experiment with pep25; 0.06 in the experiment with pep28; 0.06 in the experiment with pep04 [14]; 0.07 with pep35; 0.05 with pep16; 0.05 with pep10. Besides, the ELISA signal with pep08 came out at 0.05; with pep34 it was 0.07; with pep30, 0.06; with pep11, 0.05; with pep01, 0.05.
